Test results from patent US20260167699A1 (Chugai, published 2026).
Where a chain is given by its changes, count along the chain named.

T1: FcγRIIa(R) extracellular domain, His-tagged (human, UniProt P12318 34-217)
T1 construct: extracellular domain; also called 2aR
T1 sequence: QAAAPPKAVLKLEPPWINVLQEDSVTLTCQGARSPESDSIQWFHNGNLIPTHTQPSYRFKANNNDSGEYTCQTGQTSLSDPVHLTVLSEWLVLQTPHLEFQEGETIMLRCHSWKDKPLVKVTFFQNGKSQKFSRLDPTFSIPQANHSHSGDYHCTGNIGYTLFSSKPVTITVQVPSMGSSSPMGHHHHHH

T2: FcγRIIb extracellular domain, His-tagged (human, UniProt P31994 43-217)
T2 construct: extracellular domain; also called 2b
T2 sequence: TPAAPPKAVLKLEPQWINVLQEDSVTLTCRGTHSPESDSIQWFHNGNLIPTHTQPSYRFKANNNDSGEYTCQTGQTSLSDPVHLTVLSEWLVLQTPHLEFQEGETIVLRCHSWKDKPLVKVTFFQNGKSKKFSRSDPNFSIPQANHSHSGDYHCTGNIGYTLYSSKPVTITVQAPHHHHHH

T3: FcγRIIa(H) extracellular domain, His-tagged (human, UniProt P12318 34-217)
T3 construct: extracellular domain; also called 2aH
T3 sequence: T1 sequence with R134H

B1: GpH7-A5/GpH7-B3 variant G236_02A/GpL16-k0 (antibody, human IgG1, kappa)
heavy 1: not shown
heavy 2: not shown
light: DIVMTQSPLSLPVTPGEPASISCQASESLVHSNRNTYLHWYLQKPGQSPQLLIYKVSNRFSGVPDRFSGSGSGTDFTLKISRVEAEDVGVYYCSQNTHVPPTFGQGTKVEIERTVAAPSVFIFPPSDEQLKSGTASVVCLLNNFYPREAKVQWKVDNALQSGNSQESVTEQDSKDSTYSLSSTLTLSKADYEKHKVYACEVTHQGLSSPVTKSFNRGEC
B2: GpH7-A5/GpH7-B3 variant H268_11K/GpL16-k0 (antibody, human IgG1, kappa)
heavy 1: not shown
heavy 2: not shown
light: B1 light
B3: GpH7-A5/GpH7-B3 variant H268_04F/GpL16-k0 (antibody, human IgG1, kappa)
heavy 1: not shown
heavy 2: not shown
light: B1 light
B4: GpH7-A5/GpH7-B3 variant E269_01G/GpL16-k0 (antibody, human IgG1, kappa)
heavy 1: not shown
heavy 2: not shown
light: B1 light
B5: GpH7-A5/GpH7-B3 variant H268_15Y/GpL16-k0 (antibody, human IgG1, kappa)
heavy 1: not shown
heavy 2: not shown
light: B1 light
B6: GpH7-A5/GpH7-B3 variant E269_09D/GpL16-k0 (antibody, human IgG1, kappa)
heavy 1: not shown
heavy 2: not shown
light: B1 light
B7: GpH7-A5/GpH7-B3 variant H268_19Q/GpL16-k0 (antibody, human IgG1, kappa)
heavy 1: not shown
heavy 2: not shown
light: B1 light
B8: GpH7-A5/GpH7-B3 variant L234_01G/GpL16-k0 (antibody, human IgG1, kappa)
heavy 1: not shown
heavy 2: not shown
light: B1 light
B9: GpH7-A5/GpH7-B3 variant G236_20W/GpL16-k0 (antibody, human IgG1, kappa)
heavy 1: not shown
heavy 2: not shown
light: B1 light
B10: GpH7-A5/GpH7-B3 variant H268_08L/GpL16-k0 (antibody, human IgG1, kappa)
heavy 1: not shown
heavy 2: not shown
light: B1 light
B11: GpH7-A5/GpH7-B3 variant H268_01G/GpL16-k0 (antibody, human IgG1, kappa)
heavy 1: not shown
heavy 2: not shown
light: B1 light
B12: GpH7-A5/GpH7-B3 variant H268_10E/GpL16-k0 (antibody, human IgG1, kappa)
heavy 1: not shown
heavy 2: not shown
light: B1 light
B13: GpH7-A5/GpH7-B3 variant H268_13S/GpL16-k0 (antibody, human IgG1, kappa)
heavy 1: not shown
heavy 2: not shown
light: B1 light
B14: GpH7-A5/GpH7-B3 variant E269_14T/GpL16-k0 (antibody, human IgG1, kappa)
heavy 1: not shown
heavy 2: not shown
light: B1 light
B15: GpH7-A5/GpH7-B3 variant H268_09D/GpL16-k0 (antibody, human IgG1, kappa)
heavy 1: not shown
heavy 2: not shown
light: B1 light
B16: GpH7-A5/GpH7-B3 variant H268_03V/GpL16-k0 (antibody, human IgG1, kappa)
heavy 1: not shown
heavy 2: not shown
light: B1 light

molecular target: T1, FcγRIIa(R) extracellular domain, …; assay: SPR, vs GpH7-A5/GpH7-B3/GpL16-k0 =100

| He/Con 2aR | Binder |
| --- | --- |
| 145 % of control | B1 |
| 108 % of control | B2 |
| 105 % of control | B3 |
| 70.3 % of control | B4 |
| 118 % of control | B5 |
| 113 % of control | B6 |
| 128 % of control | B7 |
| 72.4 % of control | B8 |
| 77.3 % of control | B9 |
| 91.4 % of control | B10 |
| 134 % of control | B11 |
| 159 % of control | B12 |
| 137 % of control | B13 |
| 71 % of control | B14 |
| 161 % of control | B15 |
| 117 % of control | B16 |

molecular target: T4, FcγRIIIa extracellular domain, His-tagged (human, UniProt P08637 17-208); assay: SPR, vs GpH7-A5/GpH7-B3/GpL16-k0 =100
T4 construct: extracellular domain; also called 3a
T4 sequence (P08637 other isoform, or with tags, fused parts or gaps): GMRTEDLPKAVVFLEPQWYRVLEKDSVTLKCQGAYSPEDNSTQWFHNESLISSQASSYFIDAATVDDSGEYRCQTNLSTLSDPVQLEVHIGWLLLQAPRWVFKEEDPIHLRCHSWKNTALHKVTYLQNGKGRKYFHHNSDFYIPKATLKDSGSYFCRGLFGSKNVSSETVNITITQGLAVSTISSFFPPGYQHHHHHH

| He/Con 3a | Binder |
| --- | --- |
| 77 % of control | B1 |
| 81.6 % of control | B2 |
| 96 % of control | B3 |
| 61.6 % of control | B4 |
| 96.5 % of control | B5 |
| 106 % of control | B6 |
| 113 % of control | B7 |
| 55.8 % of control | B8 |
| 126 % of control | B9 |
| 75.9 % of control | B10 |
| 95.7 % of control | B11 |
| 184 % of control | B12 |
| 121 % of control | B13 |
| 59.7 % of control | B14 |
| 195 % of control | B15 |
| 91.4 % of control | B16 |

molecular target: T5, FcγRIa extracellular domain, His-tagged (human, UniProt P12314 16-292); assay: SPR, vs GpH7-A5/GpH7-B3/GpL16-k0 =100
T5 construct: extracellular domain; also called 1a
T5 sequence (P12314 other isoform, or with tags, fused parts or gaps): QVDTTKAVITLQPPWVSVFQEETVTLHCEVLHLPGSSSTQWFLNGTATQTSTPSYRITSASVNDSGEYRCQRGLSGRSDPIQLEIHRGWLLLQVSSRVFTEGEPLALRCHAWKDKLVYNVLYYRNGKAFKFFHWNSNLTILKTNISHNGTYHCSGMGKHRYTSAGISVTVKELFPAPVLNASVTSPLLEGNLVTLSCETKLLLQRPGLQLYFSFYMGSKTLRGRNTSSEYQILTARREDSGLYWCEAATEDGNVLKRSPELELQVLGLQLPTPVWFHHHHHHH

| He/Con 1a | Binder |
| --- | --- |
| 99.1 % of control | B1 |
| 102 % of control | B2 |
| 103 % of control | B3 |
| 101 % of control | B4 |
| 104 % of control | B5 |
| 103 % of control | B6 |
| 104 % of control | B7 |
| 99.2 % of control | B8 |
| 104 % of control | B9 |
| 104 % of control | B10 |
| 104 % of control | B11 |
| 107 % of control | B12 |
| 106 % of control | B13 |
| 102 % of control | B14 |
| 106 % of control | B15 |
| 103 % of control | B16 |

molecular target: T2, FcγRIIb extracellular domain, His-tagged; assay: SPR, vs GpH7-A5/GpH7-B3/GpL16-k0 =100

| He/Con 2b | Binder |
| --- | --- |
| 101 % of control | B1 |
| 87.2 % of control | B2 |
| 94.2 % of control | B3 |
| 54.1 % of control | B4 |
| 112 % of control | B5 |
| 110 % of control | B6 |
| 140 % of control | B7 |
| 57.8 % of control | B8 |
| 60.7 % of control | B9 |
| 71.2 % of control | B10 |
| 151 % of control | B11 |
| 242 % of control | B12 |
| 168 % of control | B13 |
| 53.2 % of control | B14 |
| 251 % of control | B15 |
| 120 % of control | B16 |

molecular target: T3, FcγRIIa(H) extracellular domain, …; assay: SPR, vs GpH7-A5/GpH7-B3/GpL16-k0 =100

| He/Con 2aH | Binder |
| --- | --- |
| 145 % of control | B1 |
| 89.8 % of control | B2 |
| 112 % of control | B3 |
| 72.3 % of control | B4 |
| 113 % of control | B5 |
| 105 % of control | B6 |
| 104 % of control | B7 |
| 84.1 % of control | B8 |
| 153 % of control | B9 |
| 85.9 % of control | B10 |
| 100 % of control | B11 |
| 126 % of control | B12 |
| 114 % of control | B13 |
| 70.3 % of control | B14 |
| 134 % of control | B15 |
| 100 % of control | B16 |
